Target: the molecule itself
Experiment: SEC-MALS

B1: CDTb construct lacking the C-terminal RBD2 (residues 212 to 751; CDTb∆RBD2) (domain or fragment)
chain: SDWEDEDLDTDNDNIPDSYERNGYTIKDLIAVKWEDSFAEQGYKKYVSNYLESNTAGDPYTDYEKASGSFDKAIKTEARDPLVAAYPIVGVGMEKLIISTNEHASTDQGKTVSRATTNSKTESNTAGVSVNVGYQNGFTANVTTNYSHTTDNSTAVQDSNGESWNTGLSINKGESAYINANVRYYNTGTAPMYKVTPTTNLVLDGDTLSTIKAQENQIGNNLSPGDTYPKKGLSPLALNTMDQFSSRLIPINYDQLKKLDAGKQIKLETTQVSGNFGTKNSSGQIVTEGNSWSDYISQIDSISASIILDTENESYERRVTAKNLQDPEDKTPELTIGEAIEKAFGATKKDGLLYFNDIPIDESCVELIFDDNTANKIKDSLKTLSDKKIYNVKLERGMNILIKTPTYFTNFDDYNNYPSTWSNVNTTNQDGLQGSANKLNGETKIKIPMSELKPYKRYVFSGYSKDPLTSNSIIVKIKAKEEKTDYLVPEQGYTKFSYEFETTEKDSSNIEITLIGSGTTYLDNLSITELNSTPEILDEP
stoichiometry N: 7

Source: PMC6969506 (Proceedings of the National Academy of Sciences of the …, 2020)
